Source: patent publication US20160046573A1, “IDENTIFYING PATIENT RESPONSE TO S1P RECEPTOR MODULATOR ADMINISTRATION” (Novartis AG, priority 2013, published 2016)

What was measured:
[1] = Inhibition of [14C]BAF312 biotransformation in HLM by CYP-specific chemical inhibitors; conditions: for Rate / Relative activity: 5 μM BAF312, HLM 0.1 mg/mL, 90 min
Procedure: The incubations were carried out in 0.1 M phosphate buffer, pH 7.4. Typical incubations of 200 (or 400) μL total volume were prepared as follows: 10 μL of 100 mM MgCl2 (5 mM), stock solutions of CHAPS, substrate and microsomes or recombinant human cytochrome P450 isoenzymes were added to appropriate volume of the buffer. […] Reaction was started by addition of 20 μL of a fresh 10 mM NADPH (1 mM). The final concentrations are given in parentheses. The final concentrations of organic solvent were maximally 0.5% (v/v). For some experiments, higher incubation volumes were prepared by keeping proportionally the quantity of all solutions. The samples were incubated at 37° C. in a thermomixer (Eppendorf 5355) with agitation at 500 rpm.
The incubation reactions were stopped and the protein was precipitated by addition of an equal volume of ice-cold 0.5% formic acid in acetonitrile. After 30 min at −80° C. (or overnight at −20° C.) the samples were centrifuged at 30,000×g for 15 min. The supernatant was withdrawn. Aliquots were analyzed by LSC (20 μL) and the supernatant was diluted appropriately with water to obtain a final solution containing less than 30% of acetonitrile. For samples with lower concentration in substrate, supernatants were evaporated to about the half of initial volumes under reduced pressure at 40° C. with SpeedVac® concentrator (model AES 2010, Savant Inc., Holbrook, N.Y., USA) then mixed with 0.5% formic acid in acetonitrile to obtain a final solution containing less 30% of acetonitrile. Sample solutions were analyzed by HPLC combined with radiodetection. (for HLPC method, see Section 1.6)
The biotransformation of BAF312 was tested at 5 μM substrate concentration in the presence of the 8 individual chemical inhibitors.

[2] = substrate: CCc1cc(/C(C)=N/OCc2ccc(C3CCCCC3)c(C(F)(F)F)c2)ccc1CN1CC(C(=O)O)C1; assay: Enzyme kinetics of [14C]BAF312 metabolism by rhCYP2C9; type: in vitro ADME, human; conditions: other: CYP 2C9; obtained from kinetic experiments; pH 7.4
Procedure: The concentration-dependent kinetics of [^14C]BAF312 biotransformation (total metabolites) in rhCYP2C9 (50 pmol/mL) after 60 minutes incubation was plotted as Michaelis-Menten plot (upper) and as Eadie-Hofstee plot (V vs. V/S, bottom) fitted with substrate inhibition model using substrate concentrations 5-300 μM.
(§1) Microsomes prepared from baculovirus infected insect cells (BTI-TN-5B1-4) expressing the following human P450 enzymes and the insect cell membrane preparations (negative control) were obtained from BD Biosciences (Woburn, Mass., USA).
(§2) The final concentrations are given in parentheses.
(§3) After 30 min at −80° C. […] The supernatant was withdrawn. […] Sample solutions were analyzed by HPLC combined with radiodetection. (for HLPC method, see Section 1.6)
Enzyme kinetic parameters Vmax and Km of the biotransformation by HLM and major metabolizing enzymes were calculated by using SigmaPlot Version 8.0 (S1), Enzyme Kinetics module Version 1.1 software (SPSS Science Inc., Chicago, Ill., USA). The intrinsic clearance was calculated by the equation: CLint=Vmax/Km.
Enzyme kinetics parameters of the isoenzymes CYP2C9 and CYP3A4 for BAF312 metabolism were determined by incubating different concentrations of [^14C]BAF312 with the isoenzyme.

[3] = substrate: CCc1cc(/C(C)=N/OCc2ccc(C3CCCCC3)c(C(F)(F)F)c2)ccc1CN1CC(C(=O)O)C1; assay: Enzyme mapping: metabolite formation by recombinant P450 isoenzyme; type: in vitro ADME, human; conditions: estimated by solving the Michaelis-Menten equation for the 2 substrate concentrations, pH 7.4
Procedure: as §1, §2, §3
Mean specific CYP enzyme concentrations in human liver microsomes were obtained from literature values (Rowland Yeo K, Rostami-Hodjegan A and Trucker GT (2004)] Abundance of cytochromes P450 in human liver: a meta-analysis. Br. J. Clinical Pharmacology; 57:687-688). For some recombinant human CYPs, the enzyme kinetic parameters were estimated by calculation assuming Michaelis-Menten type behavior for the two concentrations used, solving a linear equation system for 2 linear equations with 2 variables: […]
Microsomes prepared from baculovirus infected insect cells (BTI-TN-5B1-4) expressing one single human cytochrome P450 isoenzyme were used to assess the involvement of specific enzymes in the biotransformation of [14C]BAF312. Incubation experiments with a panel of 21 recombinant human CYPs (CYP1A1, 1A2, 1B1, 2A6, 2B6, 2C8, 2C9*1, 2C18, 2C19, 2D6*1, 2E1, 2J2, 3A4, 3A5, 3A7, 4A11, 4F2, 4F3A, 4F3B, 4F12 and CYP19) were conducted under similar conditions for each isoenzyme with 10 and 40 μM BAF312 incubation and 30 pmol CYP/mL for 30 min. […] Lower metabolism activities were also observed in incubation with CYP3A4, while some trace metabolism was detected with other CYP isoenzymes (2B6, 2C8, 2C19, 2J2, 3A5, 1A1).

With N[C@@H]1C[C@H]1c1ccccc1 (racemic) [Tranylcypromine] as the molecule, how does the “inhibition of BAF312 metabolism” value ([1]; 2 μM and 10 μM inhibitor, 5 μM substrate concentration, HLM) read?
The value was 11-29%.

And the Rate ([1]; 2 μM inhibitor)?
Its Rate is 15.3 pmol/min/mg.

What about the Relative activity ([1]; 2 μM inhibitor) of the same molecule?
The Relative activity was 89%.

What about the Rate ([1]; 10 μM inhibitor) of the same molecule?
Its Rate is 12.2 pmol/min/mg.

What about the Relative activity ([1]; 10 μM inhibitor) of the same molecule?
Its Relative activity is 71%.

For S=P(N1CC1)(N1CC1)N1CC1 [Triethylenethiophosphoramide], which Rate ([1]; 5 μM inhibitor) is on record?
Its Rate is 18.3 pmol/min/mg.

What about the Relative activity ([1]; 5 μM inhibitor) of the same molecule?
The Relative activity was 106%.

And the Rate ([1]; 20 μM inhibitor)?
Its Rate is 18.8 pmol/min/mg.

What about the Relative activity ([1]; 20 μM inhibitor) of the same molecule?
The Relative activity was 109%.

B1: rhCYP2C9 (Homo sapiens) (protein)
chain: MDSLVVLVLCLSCLLLLSLWRQSSGRGKLPPGPTPLPVIGNILQIGIKDISKSLTNLSKVYGPVFTLYFGLKPIVVLHGYEAVKEALIDLGEEFSGRGIFPLAERANRGFGIVFSNGKKWKEIRRFSLMTLRNFGMGKRSIEDRVQEEARCLVEELRKTKASPCDPTFILGCAPCNVICSIIFHKRFDYKDQQFLNLMEKLNENIKILSSPWIQICNNFSPIIDYFPGTHNKLLKNVAFMKSYILEKVKEHQESMDMNNPQDFIDCFLMKMEKEKHNQPSEFTIESLENTAVDLFGAGTETTSTTLRYALLLLLKHPEVTAKVQEEIERVIGRNRSPCMQDRSHMPYTDAVVHEVQRYIDLLPTSLPHAVTCDIKFRNYLIPKGTTILISLTSVLHDNKEFPNPEMFDPHHFLDEGGNFKKSKYFMPFSAGKRICVGEALAGMELFLFLTSILQNFNLKSLVDPKNLDTTPVVNGFASVPPFYQLCFIPV
notes: purchased BD Biosciences 456258; host or cells: baculovirus infected insect cells (BTI-TN-5B1-4)
What does the source list for B1?
Km [2]: 34.5 µM; kcat [2]: 2596 ± 233 pmol/min/nmol; kcat/Km [2]: 1250 M⁻¹ s⁻¹

B2: CYP2C8 (Homo sapiens) (protein)
chain: MEPFVVLVLCLSFMLLFSLWRQSCRRRKLPPGPTPLPIIGNMLQIDVKDICKSFTNFSKVYGPVFTVYFGMNPIVVFHGYEAVKEALIDNGEEFSGRGNSPISQRITKGLGIISSNGKRWKEIRRFSLTTLRNFGMGKRSIEDRVQEEAHCLVEELRKTKASPCDPTFILGCAPCNVICSVVFQKRFDYKDQNFLTLMKRFNENFRILNSPWIQVCNNFPLLIDCFPGTHNKVLKNVALTRSYIREKVKEHQASLDVNNPRDFIDCFLIKMEQEKDNQKSEFNIENLVGTVADLFVAGTETTSTTLRYGLLLLLKHPEVTAKVQEEIDHVIGRHRSPCMQDRSHMPYTDAVVHEIQRYSDLVPTGVPHAVTTDTKFRNYLIPKGTTIMALLTSVLHDDKEFPNPNIFDPGHFLDKNGNFKKSDYFMPFSAGKRICAGEGLARMELFLFLTTILQNFNLKSVDDLKNLNTTAVTKGIVSLPPSYQICFIPV
notes: purchased BD Biosciences 456252; host or cells: baculovirus infected insect cells (BTI-TN-5B1-4)
What does the source list for B2?
Km ([3]; other: CYP 2C8): 2.9 µM; kcat ([3]; other: CYP 2C8): 14.3 pmol/(min · nmol CYP); kcat/Km ([3]; other: CYP 2C8): 5 μL/(min. · nmol CYP)

B3: CYP2C19 (Homo sapiens) (protein)
chain: MDPFVVLVLCLSCLLLLSIWRQSSGRGKLPPGPTPLPVIGNILQIDIKDVSKSLTNLSKIYGPVFTLYFGLERMVVLHGYEVVKEALIDLGEEFSGRGHFPLAERANRGFGIVFSNGKRWKEIRRFSLMTLRNFGMGKRSIEDRVQEEARCLVEELRKTKASPCDPTFILGCAPCNVICSIIFQKRFDYKDQQFLNLMEKLNENIRIVSTPWIQICNNFPTIIDYFPGTHNKLLKNLAFMESDILEKVKEHQESMDINNPRDFIDCFLIKMEKEKQNQQSEFTIENLVITAADLLGAGTETTSTTLRYALLLLLKHPEVTAKVQEEIERVIGRNRSPCMQDRGHMPYTDAVVHEVQRYIDLIPTSLPHAVTCDVKFRNYLIPKGTTILTSLTSVLHDNKEFPNPEMFDPRHFLDEGGNFKKSNYFMPFSAGKRICVGEGLARMELFLFLTFILQNFNLKSLIDPKDLDTTPVVNGFASVPPFYQLCFIPV
notes: purchased BD Biosciences 456259; host or cells: baculovirus infected insect cells (BTI-TN-5B1-4)
Which Km ([3]; other: CYP 2C19) does the source give for B3 here?
Its Km is 140 µM.

And the kcat ([3]; other: CYP 2C19)?
Its kcat is 100 pmol/(min · nmol CYP).

What about the kcat/Km ([3]; other: CYP 2C19) of the same molecule?
Its kcat/Km is 0.7 μL/(min. · nmol CYP).

B4: CYP1A1 (Homo sapiens) (protein)
chain: MLFPISMSATEFLLASVIFCLVFWVIRASRPQVPKGLKNPPGPWGWPLIGHMLTLGKNPHLALSRMSQQYGDVLQIRIGSTPVVVLSGLDTIRQALVRQGDDFKGRPDLYTFTLISNGQSMSFSPDSGPVWAARRRLAQNGLKSFSIASDPASSTSCYLEEHVSKEAEVLISTLQELMAGPGHFNPYRYVVVSVTNVICAICFGRRYDHNHQELLSLVNLNNNFGEVVGSGNPADFIPILRYLPNPSLNAFKDLNEKFYSFMQKMVKEHYKTFEKGHIRDITDSLIEHCQEKQLDENANVQLSDEKIINIVLDLFGAGFDTVTTAISWSLMYLVMNPRVQRKIQEELDTVIGRSRRPRLSDRSHLPYMEAFILETFRHSSFVPFTIPHSTTRDTSLKGFYIPKGRCVFVNQWQINHDQKLWVNPSEFLPERFLTPDGAIDKVLSEKVIIFGMGKRKCIGETIARWEVFLFLAILLQRVEFSVPLGVKVDMTPIYGLTMKHACCEHFQMQLRS
notes: purchased BD Biosciences 456211; host or cells: baculovirus infected insect cells (BTI-TN-5B1-4)
With B4 as the molecule, how does the Km ([3]; other: CYP 1A1) read?
The Km was 25.5 µM.

What about the kcat ([3]; other: CYP 1A1) of the same molecule?
Its kcat is 47.3 pmol/(min · nmol CYP).

What about the kcat/Km ([3]; other: CYP 1A1) of the same molecule?
Its kcat/Km is 1.9 μL/(min. · nmol CYP).

B5: CYP2J2 (Homo sapiens) (protein)
chain: MLAAMGSLAAALWAVVHPRTLLLGTVAFLLAADFLKRRRPKNYPPGPWRLPFLGNFFLVDFEQSHLEVQLFVKKYGNLFSLELGDISAVLITGLPLIKEALIHMDQNFGNRPVTPMREHIFKKNGLIMSSGQAWKEQRRFTLTALRNFGLGKKSLEERIQEEAQHLTEAIKEENGQPFDPHFKINNAVSNIICSITFGERFEYQDSWFQQLLKLLDEVTYLEASKTCQLYNVFPWIMKFLPGPHQTLFSNWKKLKLFVSHMIDKHRKDWNPAETRDFIDAYLKEMSKHTGNPTSSFHEENLICSTLDLFFAGTETTSTTLRWALLYMALYPEIQEKVQAEIDRVIGQGQQPSTAARESMPYTNAVIHEVQRMGNIIPLNVPREVTVDTTLAGYHLPKGTMILTNLTALHRDPTEWATPDTFNPDHFLENGQFKKREAFMPFSIGKRACLGEQLARTELFIFFTSLMQKFTFRPPNNEKLSLKFRMGITISPVSHRLCAVPQV
notes: purchased BD Biosciences 456264; host or cells: baculovirus infected insect cells (BTI-TN-5B1-4)
With B5 as the molecule, how does the Km ([3]; other: CYP 2J2) read?
Its Km is 374 µM.

And the kcat ([3]; other: CYP 2J2)?
The kcat was 106.7 pmol/(min · nmol CYP).

What about the kcat/Km ([3]; other: CYP 2J2) of the same molecule?
Its kcat/Km is 0.3 μL/(min. · nmol CYP).
